Source: patent US10239925B2, “Peptides and combination of peptides for use in immunotherapy against ovarian cancer and other cancers” (IMMATICS BIOTECHNOLOGIES GMBH, priority 2015, dated 2019)

target: HLA-A*02:01 (Homo sapiens, UniProt P04439, D140Y/D185E/D98H/E176V/E277Q/G131W/G231S/I119V/I121R/I166T/I218V/L300P/L318F/N151K/N90K/P208A/P217A/Q86G/Q94H/R138H/R169H/T345S); experiment: MHC binding assay (UV-ligand exchange, anti-β2m ELISA, peptide exchange yield); conditions: binding to HLA-A*02:01
Outline: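 Peptide-MHC complexes formed by UV-ligand exchange, cleaving a UV-sensitive placeholder peptide in favour of the test peptide. Exchange yield measured by ELISA: monomers diluted 100-fold onto streptavidin-coated plates, 1 h 37 °C, detected with 2 ug/ml HRP anti-β2m and TMB, absorbance at 450 nm.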

Row | Substance | Peptide exchange (MHC class I binding score, peptide exchange yield)
1 | 601 (SAFPFPVTV; listed as Homo sapiens) [compound 601] | “+++” (>50 = +++)
2 | 33 (VLLSLLEKV; listed as Homo sapiens) [compound 33] | “++” (>20% = ++)
3 | 612 (YLYNEGLSV; listed as Homo sapiens) [compound 612] | “+++” (>50 = +++)
4 | 202 (ALLDQQGSRWTL; listed as Homo sapiens) [compound 202] | “+++” (>50 = +++)
5 | 77 (ILVEADGAWVV; listed as Homo sapiens) [compound 77] | “++++” (>75% = ++++)
6 | 76 (ILIDSIYKV; listed as Homo sapiens) [compound 76] | “+++” (>50 = +++)
7 | 590 (SLIEKLWQT; listed as Homo sapiens) [compound 590] | “++” (>20% = ++)
8 | 246 (LLWEVVSQL; listed as Homo sapiens) [compound 246] | “+++” (>50 = +++)
9 | 169 (NLPEYLPFV; listed as Homo sapiens) [compound 169] | “+++” (>50 = +++)
10 | 551 (KLYESLLPFA; listed as Homo sapiens) [compound 551] | “+++” (>50 = +++)
11 | 616 (VLIDEVESL; listed as Homo sapiens) [compound 616] | “+++” (>50 = +++)
12 | 1 (SLMEPPAVLLL; listed as Homo sapiens) [compound 1] | “+++” (>50 = +++)
13 | 99 (ALVSKGLATV; listed as Homo sapiens) [compound 99] | “++” (>20% = ++)
14 | 557 (KLYDDMIRL; listed as Homo sapiens) [compound 557] | “+++” (>50 = +++)
15 | 465 (QLCDLNAEL; listed as Homo sapiens) [compound 465] | “+++” (>50 = +++)
16 | 110 (FLSQVDFEL; listed as Homo sapiens) [compound 110] | “+++” (>50 = +++)
17 | 98 (LIIDQADIYL; listed as Homo sapiens) [compound 98] | “+++” (>50 = +++)
18 | 311 (RLYTGMHTV; listed as Homo sapiens) [compound 311] | “+++” (>50 = +++)
19 | 263 (LLVSNLDFGV; listed as Homo sapiens) [compound 263] | “+++” (>50 = +++)
20 | 181 (LLWAGTAFQV; listed as Homo sapiens) [compound 181] | “+++” (>50 = +++)
21 | 451 (LLLLDTVTMQV; listed as Homo sapiens) [compound 451] | “++” (>20% = ++)
22 | 243 (LLLNELPSV; listed as Homo sapiens) [compound 243] | “+++” (>50 = +++)
23 | 485 (NVPDSFNEV; listed as Homo sapiens) [compound 485] | “+++” (>50 = +++)

Row | Substance | Peptide exchange (MHC class I binding score, peptide exchange yield)
24 | 210 (LLLNAVLTV; listed as Homo sapiens) [compound 210] | “++” (>20% = ++)
25 | 619 (ALQDRVPLA; listed as Homo sapiens) [compound 619] | “+++” (>50 = +++)
26 | 46 (ILTEENIHL; listed as Homo sapiens) [compound 46] | “+++” (>50 = +++)
27 | 285 (QLLHVGVTV; listed as Homo sapiens) [compound 285] | “+++” (>50 = +++)
28 | 577 (VMFEDGVLMRL; listed as Homo sapiens) [compound 577] | “+++” (>50 = +++)
29 | 41 (SLMPHIPGL; listed as Homo sapiens) [compound 41] | “+++” (>50 = +++)
30 | 78 (SLFSSLEPQIQPV; listed as Homo sapiens) [compound 78] | “+++” (>50 = +++)
31 | 610 (LLAPTPYIIGV; listed as Homo sapiens) [compound 610] | “+++” (>50 = +++)
32 | 235 (YLNDLHEVLL; listed as Homo sapiens) [compound 235] | “++++” (>75% = ++++)
33 | 149 (NLLELFVQL; listed as Homo sapiens) [compound 149] | “+++” (>50 = +++)
34 | 541 (SMLEPVPEL; listed as Homo sapiens) [compound 541] | “+++” (>50 = +++)
35 | 496 (FLVEKQPPQV; listed as Homo sapiens) [compound 496] | “+++” (>50 = +++)
36 | 383 (ALLELENSVTL; listed as Homo sapiens) [compound 383] | “+++” (>50 = +++)
37 | 258 (ELAERVPAI; listed as Homo sapiens) [compound 258] | “++” (>20% = ++)
38 | 459 (ALITEVVRL; listed as Homo sapiens) [compound 459] | “++” (>20% = ++)
39 | 55 (SLLDLETLSL; listed as Homo sapiens) [compound 55] | “++++” (>75% = ++++)
40 | 236 (GLLEAKVSL; listed as Homo sapiens) [compound 236] | “+++” (>50 = +++)
41 | 10 (FLATFPLAAV; listed as Homo sapiens) [compound 10] | “++++” (>75% = ++++)
42 | 114 (SLVGEPILQNV; listed as Homo sapiens) [compound 114] | “++” (>20% = ++)
43 | 389 (LLADVTHLL; listed as Homo sapiens) [compound 389] | “++” (>20% = ++)
44 | 190 (FLSSLTETI; listed as Homo sapiens) [compound 190] | “+++” (>50 = +++)
45 | 572 (ALADLIEKELSV; listed as Homo sapiens) [compound 572] | “+++” (>50 = +++)
46 | 358 (ALDEYTSEL; listed as Homo sapiens) [compound 358] | “++++” (>75% = ++++)
